Results as given in IntAct's records for PubMed 29374201.

B1: Complement factor H (Homo sapiens), P08603 (parent)
chain: MRLLAKIICLMLWAICVAEDCNELPPRRNTEILTGSWSDQTYPEGTQAIYKCRPGYRSLGNVIMVCRKGEWVALNPLRKCQKRPCGHPGDTPFGTFTLTGGNVFEYGVKAVYTCNEGYQLLGEINYRECDTDGWTNDIPICEVVKCLPVTAPENGKIVSSAMEPDREYHFGQAVRFVCNSGYKIEGDEEMHCSDDGFWSKEKPKCVEISCKSPDVINGSPISQKIIYKENERFQYKCNMGYEYSERGDAVCTESGWRPLPSCEEKSCDNPYIPNGDYSPLRIKHRTGDEITYQCRNGFYPATRGNTAKCTSTGWIPAPRCTLKPCDYPDIKHGGLYHENMRRPYFPVAVGKYYSYYCDEHFETPSGSYWDHIHCTQDGWSPAVPCLRKCYFPYLENGYNQNYGRKFVQGKSIDVACHPGYALPKAQTTVTCMENGWSPTPRCIRVKTCSKSSIDIENGFISESQYTYALKEKAKYQCKLGYVTADGETSGSITCGKDGWSAQPTCIKSCDIPVFMNARTKNDFTWFKLNDTLDYECHDGYESNTGSTTGSIVCGYNGWSDLPICYERECELPKIDVHLVPDRKKDQYKVGEVLKFSCKPGFTIVGPNSVQCYHFGLSPDLPICKEQVQSCGPPPELLNGNVKEKTKEEYGHSEVVEYYCNPRFLMKGPNKIQCVDGEWTTLPVCIVEESTCGDIPELEHGWAQLSSPPYYYGDSVEFNCSESFTMIGHRSITCIHGVWTQLPQCVAIDKLKKCKSSNLIILEEHLKNKKEFDHNSNIRYRCRGKEGWIHTVCINGRWDPEVNCSMAQIQLCPPPPQIPNSHNMTTTLNYRDGEKVSVLCQENYLIQEGEEITCKDGRWQSIPLCVEKIPCSQPPQIEHGTINSSRSSQESYAHGTKLSYTCEGGFRISEENETTCYMGKWSSPPQCEGLPCKSPPEISHGVVAHMSDSYQYGEEVTYKCFEGFGIDGPAIAKCLGEKWSHPPSCIKTDCLSLPSFENAIPMGEKKDVYKAGEQVTYTCATYYKMDGASNVTCINSRWTGRPTCRDTSCVNPPTVQNAYIVSRQMSKYPSGERVRYQCRSPYEMFGDEEVMCLNGNWTEPPQCKDSTGKCGPPPPIDNGDITSFPLSVYAPASSVEYQCQNLYQLEGNKRITCRNGQWSEPPKCLHPCVISREIMENYNIALRWTAKQKLYSRTGESVEFVCKRGYRLSSRSHTLRTTCWDGKLEYPTCAKR
partner: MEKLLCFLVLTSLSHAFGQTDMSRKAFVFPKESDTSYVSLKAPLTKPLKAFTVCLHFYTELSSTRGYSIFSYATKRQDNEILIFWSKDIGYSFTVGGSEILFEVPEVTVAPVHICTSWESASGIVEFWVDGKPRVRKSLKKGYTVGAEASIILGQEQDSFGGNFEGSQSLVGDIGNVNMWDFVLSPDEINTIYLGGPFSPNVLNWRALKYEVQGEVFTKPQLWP
B2: Complement factor H (Homo sapiens), P08603-2 (parent)
chain: MRLLAKIICLMLWAICVAEDCNELPPRRNTEILTGSWSDQTYPEGTQAIYKCRPGYRSLGNVIMVCRKGEWVALNPLRKCQKRPCGHPGDTPFGTFTLTGGNVFEYGVKAVYTCNEGYQLLGEINYRECDTDGWTNDIPICEVVKCLPVTAPENGKIVSSAMEPDREYHFGQAVRFVCNSGYKIEGDEEMHCSDDGFWSKEKPKCVEISCKSPDVINGSPISQKIIYKENERFQYKCNMGYEYSERGDAVCTESGWRPLPSCEEKSCDNPYIPNGDYSPLRIKHRTGDEITYQCRNGFYPATRGNTAKCTSTGWIPAPRCTLKPCDYPDIKHGGLYHENMRRPYFPVAVGKYYSYYCDEHFETPSGSYWDHIHCTQDGWSPAVPCLRKCYFPYLENGYNQNYGRKFVQGKSIDVACHPGYALPKAQTTVTCMENGWSPTPRCIRVSFTL
partner: B1 partner
B3: Complement factor H (Homo sapiens), P08603-2 (parent)
chain: B2 chain

Variants of: B1
Details: with crp_human CRP

Row | effect of a mutation on the interaction | Variant
1 | decreasing interaction strength | Y402H

Variants of: B2
Details: with crp_human CRP

Row | effect of a mutation on the interaction | Variant
2 | decreasing interaction strength | Y402H

Variants of: B3
Details: with ptx3_human PTX3, P26022
Chain of ptx3_human PTX3, P26022 (P26022 whole entry): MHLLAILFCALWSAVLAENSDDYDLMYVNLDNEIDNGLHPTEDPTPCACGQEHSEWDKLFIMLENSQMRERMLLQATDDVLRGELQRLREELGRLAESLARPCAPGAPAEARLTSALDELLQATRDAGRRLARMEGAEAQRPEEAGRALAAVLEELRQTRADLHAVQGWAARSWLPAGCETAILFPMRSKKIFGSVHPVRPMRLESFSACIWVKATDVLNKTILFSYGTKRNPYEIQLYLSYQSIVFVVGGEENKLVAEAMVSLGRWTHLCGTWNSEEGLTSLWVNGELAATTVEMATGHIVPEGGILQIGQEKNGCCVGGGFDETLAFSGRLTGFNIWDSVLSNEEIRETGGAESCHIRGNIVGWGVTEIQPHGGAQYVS

Row | effect of a mutation on the interaction | Variant
3 | disrupting interaction strength | Y402H

Variants of: B3
Details: with ptx3_human PTX3, P26022
Remark: another data set of the same source

Row | effect of a mutation on the interaction | Variant
4 | decreasing interaction strength | Y402H
